Target: T1, DDX21 (Homo sapiens) (UniProt Q9NR30)
T1 sequence: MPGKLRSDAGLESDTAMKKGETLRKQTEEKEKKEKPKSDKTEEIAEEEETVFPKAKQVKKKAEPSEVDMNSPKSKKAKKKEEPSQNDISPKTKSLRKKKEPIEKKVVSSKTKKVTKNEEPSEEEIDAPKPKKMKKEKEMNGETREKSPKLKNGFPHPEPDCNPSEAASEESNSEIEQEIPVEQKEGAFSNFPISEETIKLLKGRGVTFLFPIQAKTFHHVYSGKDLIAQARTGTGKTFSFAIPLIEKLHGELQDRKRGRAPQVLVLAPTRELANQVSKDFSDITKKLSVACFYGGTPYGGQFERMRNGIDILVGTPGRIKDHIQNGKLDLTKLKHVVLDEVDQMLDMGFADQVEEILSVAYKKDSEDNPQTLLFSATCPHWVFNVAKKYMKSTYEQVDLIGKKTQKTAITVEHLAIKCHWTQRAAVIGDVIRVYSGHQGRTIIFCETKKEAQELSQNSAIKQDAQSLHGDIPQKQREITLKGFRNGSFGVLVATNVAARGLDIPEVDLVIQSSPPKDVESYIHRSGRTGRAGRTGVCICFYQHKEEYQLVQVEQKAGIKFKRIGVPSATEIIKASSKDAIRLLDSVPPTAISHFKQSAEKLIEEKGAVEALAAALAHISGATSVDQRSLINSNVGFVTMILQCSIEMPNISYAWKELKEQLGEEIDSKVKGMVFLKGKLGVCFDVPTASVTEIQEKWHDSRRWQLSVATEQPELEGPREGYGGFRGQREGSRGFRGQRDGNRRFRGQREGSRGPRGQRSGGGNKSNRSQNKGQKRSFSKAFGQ
Experiment: EMSA

Sequence “AGUGGCAUAAACAUGGGCUUUGGCGUCAGACAGCCCUGAGCGGGGCCCCAUUGCCCCACCCCCGAGGAAGGCGAGGGGGGGUGGCAGGGGGCUGCGGAAAGGGGCUGGGCUGGGUUGGGCUGUCUGCAGCUCUAGUCCAGGAGGCUGAGACUUCGAGAGGGACUUAGAGAAGGCAGACGCAUCCCGAACUCGCUGGAGGACAAGGCUCAGCUCUUGCCAGGCCAAAUUGAGAC [MAGED2 TV2 5'-UTR]” has a Kd of 100 nM.

From paper PMC6913123
